Patent publication US7504234B2, “Assays for S-adenosylmethionine (AdoMet)-dependent methyltransferase activity” (The Regents of the University of Michigan, priority 2006, dated 2009)

T1: hSET8 (Homo sapiens, UniProt Q9NQR1)
T1 construct: A construct of hSET8 encoding residues 191-352 was cloned into the parallel expression vector pHIS2; hexahistidine tag with TEV cleavage site (pHIS2 vector) (N); made in house; host or cells: Escherichia coli BL21 (DE3) Codon Plus RIL
T1 sequence (Q9NQR1 191-352 isoform Q9NQR1-2): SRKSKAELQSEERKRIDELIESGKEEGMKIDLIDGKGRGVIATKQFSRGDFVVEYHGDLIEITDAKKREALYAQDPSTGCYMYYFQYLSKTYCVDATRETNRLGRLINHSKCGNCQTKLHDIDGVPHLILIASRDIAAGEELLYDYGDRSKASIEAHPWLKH


How the values were obtained:
hSET8 = molecular target: T1, hSET8; test: isothermal titration calorimetry, wild-type and mutant histone H4 peptides with hSET8; assay type: binding; settings: ITC; for histone H4 binding / affinity of hSET8 for mutant histone H4 peptide: 20° C., pH 7.0, saturating AdoHcy; for AdoHcy binding: hSET8 with His-18 mutant H4 peptide
Method: The equilibrium dissociation constants of wild type and mutants of hSET8 and histone H4 were determined using a VP-ITC calorimeter (MicroCal, LLC). […] A saturating concentration of AdoHcy (1.0-2.0 mM) was used in all titrations. ITC data were subsequently analyzed using Origin 7.0 (OriginLab Corp.) with blank injections of ligand into buffer subtracted from the experimental titrations prior to data analysis.

their cognate substrates = settings: radiometric assay, literature values; cited from earlier work
Lys-20 in histone H4 = test: MALDI mass spectrometry of methyltransferase reactions (product specificity); assay type: biochemical
Method: Histone methyltransferase assays were performed with wildtype hSET8 and the Tyr-245 and Tyr-334 mutants (5 μM) as described above and were quenched after 15 min or 24 h by the addition of 0.5% trifluoroacetic acid. Aliquots of the samples were cocrystallized with α-cyano-4-hydroxycinnamic acid (1:1), applied on the target, and dried at room temperature. The mass spectra were acquired on the TofSpec 2E MALDI-TOF mass spectrometer (Waters, Inc.) in reflectron mode, with each spectrum representing the average of 50 laser shots. Close external calibration was used based on the following mixture: bradikinin fragment 1-8, m/z=904.41 (for [M+H]+); angiotensin II, m/z=1046.54; [Glul]-fibrinopeptide B, m/z=1570.68; ACTH (clip 18-39), m/z=2465.20.

Molecule | histone H4 binding / affinity of hSET8 for mutant histone H4 peptide (hSET8) | AdoHcy binding (hSET8) | turnover number (their cognate substrates) | also measured
H18A: histone H4 peptide (residues 15-24) with His-18 mutated to alanine (Ac-AKRARKVLRD-NH2; UniProt P62805 16-25, looked up, variant H18A) | completely abolishes binding | severely abrogate AdoHcy binding |  | histone H4 binding / affinity of hSET8 for mutant histone H4 peptide (hSET8; listed as His-18 to alanine): completely abolishes both histone H4 binding and methylation
H18F: histone H4 peptide (residues 15-24) with His-18 mutated to phenylalanine (Ac-AKRFRKVLRD-NH2; UniProt P62805 16-25, looked up, variant H18F) | modestly affects the affinity | severely abrogate AdoHcy binding |  | histone H4 binding / affinity of hSET8 for mutant histone H4 peptide (hSET8; listed as His-18 to phenylalanine): does not impact the affinity to nearly the same extent as the H347F substitution
Drosophila SU(VAR)3-9: H3 Lys-9-specific histone methyltransferase (protein, UniProt P45975 1-635, looked up) Histone-lysine …: MATAEAQIGVNRNLQKQDLSNLDVSKLTPLSPEVISRQATINIGTIGHVAHGKSTVVKAISGVQTVRFKNELERNITIKLERLSEKKIKNLLTSKQQRQQYEIKQRSMLRHLAELRRHSRFRRLCTKPASSSMPASTSSVDRRTTRRSTSQTSLSPSNSSGYGSVFGCEEHDVDKIPSLNGFAKLKRRRSSCVGAPTPNSKRSKNNMGVIAKRPPKGEYVVERIECVEMDQYQPVFFVKWLGYHDSENTWESLANVADCAEMEKFVERHQQLYETYIAKITTELEKQLEALPLMENITVAEVDAYEPLNLQIDLILLAQYRAAGSRSQREPQKIGERALKSMQIKRAQFVRRKQLADLALFEKRMNHVEKPSPPIRVENNIDLDTIDSNFMYIHDNIIGKDVPKPEAGIVGCKCTEDTEECTASTKCCARFAGELFAYERSTRRLRLRPGSAIYECNSRCSCDSSCSNRLVQHGRQVPLVLFKTANGSGWGVRAATALRKGEFVCEYIGEIITSDEANERGKAYDDNGRTYLFDLDYNTAQDSEYTIDAANYGNISHFINHSCDPNLAVFPCWIEHLNVALPHLVFFTLRPIKAGEELSFDYIRADNEDVPYENLSTAVRVECRCGRDNCRKVLF |  |  | 0.11 s⁻¹ | 
human SET7/9: human histone H3 Lys-4-specific methyltransferase (protein, UniProt Q8WTS6 1-366, looked up) Histone-lysine …: MDSDDEMVEEAVEGHLDDDGLPHGFCTVTYSSTDRFEGNFVHGEKNGRGKFFFFDGSTLEGYYVDDALQGQGVYTYEDGGVLQGTYVDGELNGPAQEYDTDGRLIFKGQYKDNIRHGVCWIYYPDGGSLVGEVNEDGEMTGEKIAYVYPDERTALYGKFIDGEMIEGKLATLMSTEEGRPHFELMPGNSVYHFDKSTSSCISTNALLPDPYESERVYVAESLISSAGEGLFSKVAVGPNTVMSFYNGVRITHQEVDSRDWALNGNTLSLDEETVIDVPEPYNHVSKYCASLGHKANHSFTPNCIYDMFVHPRFGPIKCIRTLRAVEADEELTVAYGYDHSPPGKSGPEAPEWYQVELKAFQATQQK |  |  | 0.004 s⁻¹ | 
mouse G9A: histone H3 Lys-9/27 methyltransferase (protein, UniProt Q9Z148 1-1263, looked up) Histone-lysine …: MRGLPRGRGLMRARGRGRAAPTGGRGRGRGGAHRGRGRPRSLLSLPRAQASWAPQLPAGLTGPPVPCLPSQGEAPAEMGALLLEKEPRGAAERVHSSLGDTPQSEETLPKANPDSLEPAGPSSPASVTVTVGDEGADTPVGAASLIGDEPESLEGDGGRIVLGHATKSFPSSPSKGGACPSRAKMSMTGAGKSPPSVQSLAMRLLSMPGAQGAATAGPEPSPATTAAQEGQPKVHRARKTMSKPSNGQPPIPEKRPPEVQHFRMSDDMHLGKVTSDVAKRRKLNSGSLSEDLGSAGGSGDIILEKGEPRPLEEWETVVGDDFSLYYDAYSVDERVDSDSKSEVEALAEQLSEEEEEEEEEEEEEEEEEEEEEEEEEDEESGNQSDRSGSSGRRKAKKKWRKDSPWVKPSRKRRKREPPRAKEPRGVNGVGSSGPSEYMEVPLGSLELPSEGTLSPNHAGVSNDTSSLETERGFEELPLCSCRMEAPKIDRISERAGHKCMATESVDGELLGCNAAILKRETMRPSSRVALMVLCEAHRARMVKHHCCPGCGYFCTAGTFLECHPDFRVAHRFHKACVSQLNGMVFCPHCGEDASEAQEVTIPRGDGGTPPIGTAAPALPPLAHDAPGRADTSQPSARMRGHGEPRRPPCDPLADTIDSSGPSLTLPNGGCLSAVGLPPGPGREALEKALVIQESERRKKLRFHPRQLYLSVKQGELQKVILMLLDNLDPNFQSDQQSKRTPLHAAAQKGSVEICHVLLQAGANINAVDKQQRTPLMEAVVNNHLEVARYMVQLGGCVYSKEEDGSTCLHHAAKIGNLEMVSLLLSTGQVDVNAQDSGGWTPIIWAAEHKHIDVIRMLLTRGADVTLTDNEENICLHWASFTGSAAIAEVLLNAQCDLHAVNYHGDTPLHIAARESYHDCVLLFLSRGANPELRNKEGDTAWDLTPERSDVWFALQLNRKLRLGVGNRAVRTEKIICRDVARGYENVPIPCVNGVDGEPCPEDYKYISENCETSTMNIDRNITHLQHCTCVDDCSSSNCLCGQLSIRCWYDKDGRLLQEFNKIEPPLIFECNQACSCWRSCKNRVVQSGIKVRLQLYRTAKMGWGVRALQTIPQGTFICEYVGELISDAEADVREDDSYLFDLDNKDGEVYCIDARYYGNISRFINHLCDPNIIPVRVFMLHQDLRFPRIAFFSSRDIRTGEELGFDYGDRFWDIKSKYFTCQCGSEKCKHSAEAIALEQSRLARLDPHPELLPDLSSLPPINT |  |  | 0.024 s⁻¹ | 
wild-type hSET8: construct of hSET8 encoding residues 191-352, catalytic SET domain (protein, UniProt Q9NQR1 191-352, looked up, fragment) AAIAKQALKKPIKGKQAPRKKAQGKTQQNRKLTDFYPVRRSSRKSKAELQSEERKRIDELIESGKEEGMKIDLIDGKGRGVIATKQFSRGDFVVEYHGDLIEITDAKKREALYAQDPSTGCYMYYFQYLSKTYCVDATRETNRLGRLINHSKCGNCQTKLHD |  |  |  | methylation state of Lys-20 after reaction with the H4 peptide (Lys-20 in histone H4; 24 h): complete conversion to monomethyl-Lys-20; product specificity (Lys-20 in histone H4; MALDI mass spectrometry): bona fide histone H4 Lys-20 monomethylase
